Experimental findings from patent US20240238380A1 (YUHAN, published 2024) are described below.

B1: FM9-2 + Fc_hole long-acting GDF15 fusion protein (dimer) (Fc fusion)
chain 1: APEAAGGPSVFLFPPKPKDTLMISRTPEVTCVVVDVSHEDPEVKFNWYVDGVEVHNAKTKPREEQYASTYRVVSVLTVLHQDWLNGKEYKCKVSNKALPAPIEKTISKAKGQPREPQVYTLPPSREEMTKNQVSLWCLVKGFYPSDIAVEWESNGQPENNYKTTPPVLDSDGSFFLYSKLTVDKSRWQQGNVFSCSVMHEALHNHYTQKSLSLSPGKGSGGGGSGGGGSGGGGSGGGGSGGGGSNGDHCPLGPGRCCRLHTVRASLEDLGWADWVLSPREVQVTMCIGACPSQFRAANMHAQIKTRLHRLKPDTVPAPCCVPASYNPMVLIQKTDTGVSLQTYDDLLAKDCHCI
chain 2: APEAAGGPSVFLFPPKPKDTLMISRTPEVTCVVVDVSHEDPEVKFNWYVDGVEVHNAKTKPREEQYASTYRVVSVLTVLHQDWLNGKEYKCKVSNKALPAPIEKTISKAKGQPREPQVYTLPPSREEMTKNQVSLSCAVKGFYPSDIAVEWESNGQPENNYKTTPPVLDSDGSFFLVSKLTVDKSRWQQGNVFSCSVMHEALHNHYTQKSLSLSPGK
B2: FM9-4 + Fc_hole long-acting GDF15 fusion protein (dimer) (Fc fusion)
chain 1: APEAAGGPSVFLFPPKPKDTLMISRTPEVTCVVVDVSHEDPEVKFNWYVDGVEVHNAKTKPREEQYASTYRVVSVLTVLHQDWLNGKEYKCKVSNKALPAPIEKTISKAKGQPREPQVYTLPPSREEMTKNQVSLWCLVKGFYPSDIAVEWESNGQPENNYKTTPPVLDSDGSFFLYSKLTVDKSRWQQGNVFSCSVMHEALHNHYTQKSLSLSPGKGSEEEAEEEAEEEAEEEAEEEAEEEANGDHCPLGPGRCCRLHTVRASLEDLGWADWVLSPREVQVTMCIGACPSQFRAANMHAQIKTRLHRLKPDTVPAPCCVPASYNPMVLIQKTDTGVSLQTYDDLLAKDCHCI
chain 2: B1 chain 2
B3: FM9-3 + Fc_hole long-acting GDF15 fusion protein (dimer) (Fc fusion)
chain 1: APEAAGGPSVFLFPPKPKDTLMISRTPEVTCVVVDVSHEDPEVKFNWYVDGVEVHNAKTKPREEQYASTYRVVSVLTVLHQDWLNGKEYKCKVSNKALPAPIEKTISKAKGQPREPQVYTLPPSREEMTKNQVSLWCLVKGFYPSDIAVEWESNGQPENNYKTTPPVLDSDGSFFLYSKLTVDKSRWQQGNVFSCSVMHEALHNHYTQKSLSLSPGKGSGGGGSGGGGSGGGGSGGGGSGGGGSGGGGSGGGGSNGDHCPLGPGRCCRLHTVRASLEDLGWADWVLSPREVQVTMCIGACPSQFRAANMHAQIKTRLHRLKPDTVPAPCCVPASYNPMVLIQKTDTGVSLQTYDDLLAKDCHCI
chain 2: B1 chain 2

Sequence of GFRAL/RET overexpressed on HEK293 cells (GFRAL/RET/SRE-luc-overexpressing HEK293 cell line) (Q6UXV0 19-394 limits assumed, chain 1 of 2): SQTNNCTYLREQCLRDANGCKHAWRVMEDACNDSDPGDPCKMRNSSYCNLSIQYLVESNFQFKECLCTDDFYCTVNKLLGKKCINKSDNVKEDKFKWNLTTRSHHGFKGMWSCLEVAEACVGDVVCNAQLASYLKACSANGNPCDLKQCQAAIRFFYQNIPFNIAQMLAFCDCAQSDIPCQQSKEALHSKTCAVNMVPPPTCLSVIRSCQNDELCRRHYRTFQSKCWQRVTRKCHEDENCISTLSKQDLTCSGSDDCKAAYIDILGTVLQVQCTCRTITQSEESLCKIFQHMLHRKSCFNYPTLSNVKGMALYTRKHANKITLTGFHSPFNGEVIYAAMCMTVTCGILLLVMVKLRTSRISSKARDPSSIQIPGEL
Sequence of GFRAL/RET overexpressed on HEK293 cells (GFRAL/RET/SRE-luc-overexpressing HEK293 cell line) (P07949 29-1114 limits assumed, chain 2 of 2): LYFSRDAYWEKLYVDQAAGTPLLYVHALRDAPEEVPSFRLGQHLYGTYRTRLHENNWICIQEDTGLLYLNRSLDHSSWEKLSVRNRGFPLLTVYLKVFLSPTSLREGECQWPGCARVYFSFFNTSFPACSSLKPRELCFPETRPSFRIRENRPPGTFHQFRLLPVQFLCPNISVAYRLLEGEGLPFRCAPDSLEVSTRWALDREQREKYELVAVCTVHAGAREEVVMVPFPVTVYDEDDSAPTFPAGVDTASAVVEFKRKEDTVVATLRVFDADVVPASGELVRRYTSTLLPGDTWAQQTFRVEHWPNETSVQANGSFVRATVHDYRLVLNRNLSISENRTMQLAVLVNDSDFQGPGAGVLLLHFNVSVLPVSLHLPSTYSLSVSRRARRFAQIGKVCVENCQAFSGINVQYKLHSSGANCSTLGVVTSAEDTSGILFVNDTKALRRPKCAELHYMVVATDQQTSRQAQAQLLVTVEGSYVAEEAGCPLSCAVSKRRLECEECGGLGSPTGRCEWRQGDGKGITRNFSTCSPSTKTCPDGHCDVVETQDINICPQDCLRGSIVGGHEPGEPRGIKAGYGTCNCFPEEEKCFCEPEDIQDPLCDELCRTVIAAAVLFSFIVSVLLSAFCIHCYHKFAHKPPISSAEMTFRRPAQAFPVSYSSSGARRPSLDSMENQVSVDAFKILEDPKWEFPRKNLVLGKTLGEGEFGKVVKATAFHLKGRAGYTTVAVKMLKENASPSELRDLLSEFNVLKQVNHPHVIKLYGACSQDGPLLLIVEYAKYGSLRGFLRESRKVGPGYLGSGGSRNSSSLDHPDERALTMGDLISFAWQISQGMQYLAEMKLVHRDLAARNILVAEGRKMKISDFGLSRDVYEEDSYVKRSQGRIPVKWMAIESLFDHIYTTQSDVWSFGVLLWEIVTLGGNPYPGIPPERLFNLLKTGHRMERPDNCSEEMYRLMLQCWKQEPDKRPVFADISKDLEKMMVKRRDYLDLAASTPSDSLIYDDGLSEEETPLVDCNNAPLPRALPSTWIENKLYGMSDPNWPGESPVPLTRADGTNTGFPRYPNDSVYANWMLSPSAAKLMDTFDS

The experiment concerns the target GFRAL/RET overexpressed on HEK293 cells (GFRAL/RET/SRE-luc-overexpressing HEK293 cell line) (UniProt Q6UXV0 19-394; P07949 29-1114, limits assumed). Put plainly: cell-based or functional assay.
For B1, the “EC50 (nM), SRE-luciferase reporter (RLU)” value was determined as 9.5 nM and the “Emax (%), SRE-luciferase reporter (RLU), relative to FM9-6+Fc_hole” value was determined as 111%.
For B2 the same measures were 23.6 nM and 128%.
As for B3, the “EC50 (nM), SRE-luciferase reporter (RLU)” value was 9.3 nM and the “Emax (%), SRE-luciferase reporter (RLU), relative to FM9-6+Fc_hole” value was determined as 95.6%.
